Numbered stars: 1 amine (or outer) side, 2 acyl side, 3 side chain; on linkers, the order of the positions; unused ones are H or OH. Square brackets hold non-standard residues; d marks the D form. Side chains are listed from the residue outwards. Ends that are not written are not given here. * marks the point of attachment. C20 diacid = O=C(O)CCCCCCCCCCCCCCCCCCC(=O)*; C18 diacid = O=C(O)CCCCCCCCCCCCCCCCC(=O)*; αMePhe(2-F) = C[C@](N)(Cc1ccccc1F)C(=O)O; γGlu = O=C(O)[C@H](CCC(=O)[*:2])N[*:1]; αMeL = CC(C)C[C@](C)(N)C(=O)O; AEEA = NCCOCCOCC(=O)O; Aib = CC(C)(N)C(=O)O

This is an account of results in patent publication US12295987B2, “Method of using a GIP/GLP1 co-agonist for diabetes” (Eli Lilly and Company, priority 2018, dated 2025).

The target in the assay is T1, human gastric inhibitory peptide receptor (hGIPR) (Homo sapiens, UniProt P48546).
T1 construct: expressed in transfected cells; host or cells: HEK293
T1 sequence (P48546 22-466): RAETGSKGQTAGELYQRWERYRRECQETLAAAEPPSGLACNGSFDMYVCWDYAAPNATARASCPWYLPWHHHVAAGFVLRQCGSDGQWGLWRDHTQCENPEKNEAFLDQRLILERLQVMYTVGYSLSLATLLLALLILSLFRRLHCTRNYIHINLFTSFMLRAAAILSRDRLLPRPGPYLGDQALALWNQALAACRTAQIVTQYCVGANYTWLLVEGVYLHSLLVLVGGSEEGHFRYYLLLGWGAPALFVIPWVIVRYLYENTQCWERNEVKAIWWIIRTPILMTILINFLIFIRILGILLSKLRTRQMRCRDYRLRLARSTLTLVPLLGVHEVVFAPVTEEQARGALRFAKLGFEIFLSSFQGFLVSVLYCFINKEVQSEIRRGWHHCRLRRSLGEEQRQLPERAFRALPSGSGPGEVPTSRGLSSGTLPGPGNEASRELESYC
In words: cAMP pharmacological functional assay in presence of 0.1% casein, hGIPR. Format: cell-based. The settings on record: ratio of hGIPR to hGLP1R cAMP EC50 ratios.

Take “Y-Aib-EGT-αMeF(2F)-TSDHSI-αMeL-LDEK((2-[2-(2-Amino-ethoxy)-ethoxy]-acetyl)2-(γGlu)-CO—(CH2)16—CO2H)AQ-Aib-HFI-(D-Glu)-YLIEGG-NH2 (Y[Aib]EGT[αMePhe(2-F)]TSDHSI[αMeL]LDEK([AEEA-AEEA-γGlu-C18 diacid])AQ[Aib]HFI[dE]YLIEGG-NH2; N-terminus assumed; SMILES CC[C@H](C)[C@H](NC(=O)[C@H](CC(C)C)NC(=O)[C@H](Cc1ccc(O)cc1)NC(=O)[C@@H](CCC(=O)O)NC(=O)[C@@H](NC(=O)[C@H](Cc1ccccc1)NC(=O)[C@H](Cc1c[nH]cn1)NC(=O)C(C)(C)NC(=O)[C@H](CCC(N)=O)NC(=O)[C@H](C)NC(=O)[C@H](CCCCNC(=O)COCCOCCNC(=O)COCCOCCNC(=O)CC[C@H](NC(=O)CCCCCCCCCCCCCCCCC(=O)O)C(=O)O)NC(=O)[C@H](CCC(=O)O)NC(=O)[C@H](CC(=O)O)NC(=O)[C@H](CC(C)C)NC(=O)[C@](C)(CC(C)C)NC(=O)[C@@H](NC(=O)[C@H](CO)NC(=O)[C@H](Cc1c[nH]cn1)NC(=O)[C@H](CC(=O)O)NC(=O)[C@H](CO)NC(=O)[C@@H](NC(=O)[C@](C)(Cc1ccccc1F)NC(=O)[C@@H](NC(=O)CNC(=O)[C@H](CCC(=O)O)NC(=O)C(C)(C)NC(=O)[C@@H](N)Cc1ccc(O)cc1)[C@@H](C)O)[C@@H](C)O)[C@@H](C)CC)[C@@H](C)CC)C(=O)N[C@@H](CCC(=O)O)C(=O)NCC(=O)NCC(N)=O) [Peptide 180]”: the “[hGIPR/hGLP1R] EC50 Ratio” value was 6.27. In the case of “Y-Aib-EGT-αMeF(2F)-TSDHSI-αMeL-LDEK((2-[2-(2-Amino-ethoxy)-ethoxy]-acetyl)2-(γGlu)-CO—(CH2)16—CO2H)AQ-Aib-HFI-(D-Glu)-YLIEGGPSSG-NH2 (Y[Aib]EGT[αMePhe(2-F)]TSDHSI[αMeL]LDEK([AEEA-AEEA-γGlu-C18 diacid])AQ[Aib]HFI[dE]YLIEGGPSSG-NH2; N-terminus assumed; SMILES CC[C@H](C)[C@H](NC(=O)[C@H](CC(C)C)NC(=O)[C@H](Cc1ccc(O)cc1)NC(=O)[C@@H](CCC(=O)O)NC(=O)[C@@H](NC(=O)[C@H](Cc1ccccc1)NC(=O)[C@H](Cc1c[nH]cn1)NC(=O)C(C)(C)NC(=O)[C@H](CCC(N)=O)NC(=O)[C@H](C)NC(=O)[C@H](CCCCNC(=O)COCCOCCNC(=O)COCCOCCNC(=O)CC[C@H](NC(=O)CCCCCCCCCCCCCCCCC(=O)O)C(=O)O)NC(=O)[C@H](CCC(=O)O)NC(=O)[C@H](CC(=O)O)NC(=O)[C@H](CC(C)C)NC(=O)[C@](C)(CC(C)C)NC(=O)[C@@H](NC(=O)[C@H](CO)NC(=O)[C@H](Cc1c[nH]cn1)NC(=O)[C@H](CC(=O)O)NC(=O)[C@H](CO)NC(=O)[C@@H](NC(=O)[C@](C)(Cc1ccccc1F)NC(=O)[C@@H](NC(=O)CNC(=O)[C@H](CCC(=O)O)NC(=O)C(C)(C)NC(=O)[C@@H](N)Cc1ccc(O)cc1)[C@@H](C)O)[C@@H](C)O)[C@@H](C)CC)[C@@H](C)CC)C(=O)N[C@@H](CCC(=O)O)C(=O)NCC(=O)NCC(=O)N1CCC[C@H]1C(=O)N[C@@H](CO)C(=O)N[C@@H](CO)C(=O)NCC(N)=O) [Peptide 179]”, the “[hGIPR/hGLP1R] EC50 Ratio” value is recorded as 3.40.

As for “Y-Aib-EGT-αMeF(2F)-TSDHSI-αMeL-LDEK((2-[2-(2-Amino-ethoxy)-ethoxy]-acetyl)2-(γGlu)-CO—(CH2)16—CO2H)AQ-Aib-TFI-(D-Glu)-YLIEGGPSSGAPPPS-NH2 (YXEGTXTSDHSIXLDEKAQXTFIXYLIEGGPSSGAPPPS; Aib, αMeF(2F), αMeL, D-Glu; C18 diacid lipidated K; amide; (2)..(2) Xaa at position 2 is Aib; (6)..(6) Xaa at position 6 is alpha-methyl-Phe(2F); (13)..(13) Xaa at position 13 is alpha-methyl-Leu; MOD_RES (17)..(17) Lys at position 17 is chemically modified by conjugation of the epsilon-amino group of the Lys side chain with (2-[2-(2-amino-ethoxy)-ethoxy]-acetyl)2-(gamma-Glu)-CO-(CH2)16- CO2H; (20)..(20) Xaa at position 20 is Aib; (24)..(24) Xaa at positi) [Peptide 169]”, the “[hGIPR/hGLP1R] EC50 Ratio” value was determined as 8.97. As to “Y-Aib-EGT-αMeF(2F)-TSDHSI-αMeL-LDEK((2-[2-(2-Amino-ethoxy)-ethoxy]-acetyl)2-(γGlu)-CO—(CH2)18—CO2H)AQ-Aib-EFIEYLIEGGPSSGAPPPS-NH2 (Y[Aib]EGT[αMePhe(2-F)]TSDHSI[αMeL]LDEK([AEEA-AEEA-γGlu-C20 diacid])AQ[Aib]EFIEYLIEGGPSSGAPPPS-NH2; N-terminus assumed; SMILES CC[C@H](C)[C@H](NC(=O)[C@H](CC(C)C)NC(=O)[C@H](Cc1ccc(O)cc1)NC(=O)[C@H](CCC(=O)O)NC(=O)[C@@H](NC(=O)[C@H](Cc1ccccc1)NC(=O)[C@H](CCC(=O)O)NC(=O)C(C)(C)NC(=O)[C@H](CCC(N)=O)NC(=O)[C@H](C)NC(=O)[C@H](CCCCNC(=O)COCCOCCNC(=O)COCCOCCNC(=O)CC[C@H](NC(=O)CCCCCCCCCCCCCCCCCCC(=O)O)C(=O)O)NC(=O)[C@H](CCC(=O)O)NC(=O)[C@H](CC(=O)O)NC(=O)[C@H](CC(C)C)NC(=O)[C@](C)(CC(C)C)NC(=O)[C@@H](NC(=O)[C@H](CO)NC(=O)[C@H](Cc1c[nH]cn1)NC(=O)[C@H](CC(=O)O)NC(=O)[C@H](CO)NC(=O)[C@@H](NC(=O)[C@](C)(Cc1ccccc1F)NC(=O)[C@@H](NC(=O)CNC(=O)[C@H](CCC(=O)O)NC(=O)C(C)(C)NC(=O)[C@@H](N)Cc1ccc(O)cc1)[C@@H](C)O)[C@@H](C)O)[C@@H](C)CC)[C@@H](C)CC)C(=O)N[C@@H](CCC(=O)O)C(=O)NCC(=O)NCC(=O)N1CCC[C@H]1C(=O)N[C@@H](CO)C(=O)N[C@@H](CO)C(=O)NCC(=O)N[C@@H](C)C(=O)N1CCC[C@H]1C(=O)N1CCC[C@H]1C(=O)N1CCC[C@H]1C(=O)N[C@@H](CO)C(N)=O) [Peptide 154]”, the “[hGIPR/hGLP1R] EC50 Ratio” value worked out at 4.80.

In the case of “Y-Aib-EGT-αMeF(2F)-TSDHSI-αMeL-LDEK((2-[2-(2-Amino-ethoxy)-ethoxy]-acetyl)2-(γGlu)-CO—(CH2)18—CO2H)AQ-Aib-TFI-(D-Glu)-YLIEGGPSSG-NH2 (Y[Aib]EGT[αMePhe(2-F)]TSDHSI[αMeL]LDEK([AEEA-AEEA-γGlu-C20 diacid])AQ[Aib]TFI[dE]YLIEGGPSSG-NH2; N-terminus assumed; SMILES CC[C@H](C)[C@H](NC(=O)[C@H](CC(C)C)NC(=O)[C@H](Cc1ccc(O)cc1)NC(=O)[C@@H](CCC(=O)O)NC(=O)[C@@H](NC(=O)[C@H](Cc1ccccc1)NC(=O)[C@@H](NC(=O)C(C)(C)NC(=O)[C@H](CCC(N)=O)NC(=O)[C@H](C)NC(=O)[C@H](CCCCNC(=O)COCCOCCNC(=O)COCCOCCNC(=O)CC[C@H](NC(=O)CCCCCCCCCCCCCCCCCCC(=O)O)C(=O)O)NC(=O)[C@H](CCC(=O)O)NC(=O)[C@H](CC(=O)O)NC(=O)[C@H](CC(C)C)NC(=O)[C@](C)(CC(C)C)NC(=O)[C@@H](NC(=O)[C@H](CO)NC(=O)[C@H](Cc1c[nH]cn1)NC(=O)[C@H](CC(=O)O)NC(=O)[C@H](CO)NC(=O)[C@@H](NC(=O)[C@](C)(Cc1ccccc1F)NC(=O)[C@@H](NC(=O)CNC(=O)[C@H](CCC(=O)O)NC(=O)C(C)(C)NC(=O)[C@@H](N)Cc1ccc(O)cc1)[C@@H](C)O)[C@@H](C)O)[C@@H](C)CC)[C@@H](C)O)[C@@H](C)CC)C(=O)N[C@@H](CCC(=O)O)C(=O)NCC(=O)NCC(=O)N1CCC[C@H]1C(=O)N[C@@H](CO)C(=O)N[C@@H](CO)C(=O)NCC(N)=O) [Peptide 167]”, the “[hGIPR/hGLP1R] EC50 Ratio” value is 5.98.

On to “Y-Aib-EGT-αMeF(2F)-TSDHSI-αMeL-LDEK((2-[2-(2-Amino-ethoxy)-ethoxy]-acetyl)2-(γGlu)-CO—(CH2)18—CO2H)AQ-Aib-TFI-(D-Glu)-YLIEGGPSSGAPPPS-NH2 (YXEGTXTSDHSIXLDEKAQXTFIXYLIEGGPSSGAPPPS; Aib, αMeF(2F), αMeL, D-Glu; lipidated K; C-terminal amide; (2)..(2) Xaa at position 2 is Aib; (6)..(6) Xaa at position 6 is alpha-methyl-Phe(2F); (13)..(13) Xaa at position 13 is alpha-methyl-Leu; MOD_RES (17)..(17) Lys at position 17 is chemically modified by conjugation of the epsilon-amino group of the Lys side chain with (2-[2-(2-amino-ethoxy)-ethoxy]-acetyl)2-(gamma-Glu)-CO-(CH2)18- CO2H; (20)..(20) Xaa at position 20 is Aib; (24)..(24) Xaa at positi) [Peptide 168]”, for which the “[hGIPR/hGLP1R] EC50 Ratio” value is recorded as 9.69. For “Y-Aib-EGT-αMeF(2F)-TSDHSI-αMeL-LDEK((2-[2-(2-Amino-ethoxy)-ethoxy]-acetyl)2-(εK)-CO—(CH2)16—CO2H)AQ-Aib-TFI-(D-Glu)-YLIEGGPSSGAPPPS-NH2 (YXEGTXTSDHSIXLDEKAQXTFIXYLIEGGPSSGAPPPS; Aib, αMeF(2F), αMeL, D-Glu; εK-lipidated K; amide; (2)..(2) Xaa at position 2 is Aib; (6)..(6) Xaa at position 6 is alpha-methyl-Phe(2F); (13)..(13) Xaa at position 13 is alpha-methyl-Leu; MOD_RES (17)..(17) Lys at position 17 is chemically modified by conjugation of the epsilon-amino group of the Lys side chain with (2-[2-(2-amino-ethoxy)-ethoxy]-acetyl)2-(epsilon-Lys)-CO-(CH2)16- CO2H; (20)..(20) Xaa at position 20 is Aib; (24)..(24) Xaa at posi) [Peptide 176]”, the “[hGIPR/hGLP1R] EC50 Ratio” value stood at 4.71.
